# Reference: paper PMC6151440
# What was measured:
# Assay in all cases: NMR
# Details in all cases: folded, free wild-type ubiquitin
# Glu18 = Glu18 (UniProt position 18, ITLEVEPSDTI)
# Asp39 = Asp39 (UniProt position 39, EGIPPDQQRLI)
# Asp21 = Asp21 (UniProt position 21, EVEPSDTIENV)
# Glu51 = Glu51 (UniProt position 51, AGKQLEDGRTL)
# Glu16 = Glu16 (UniProt position 16, KTITLEVEPSD)
# Asp58 = Asp58 (UniProt position 58, GRTLSDYNIQK)
# Glu34 = Glu34 (UniProt position 34, KIQDKEGIPPD)
# Asp32 = Asp32 (UniProt position 32, KAKIQDKEGIP)
# Glu64 = Glu64 (UniProt position 64, YNIQKESTLHL)
# [1] = 298 K, not stated (20 mM d-Tris-HCl buffer, no added salt stated), 20 mM d-Tris-HCl, 1-1.5 mM
# [2] = 303 K, 100 mM KCl, cited from earlier work
substance,measurement,setting,value
Ubiquitin (wild type) (not stated (Homo sapiens inferred)),pKa,Glu18; [1],4.26 ± 0.03
same,pKa,Glu18; [2],4.3
same,pKa,Asp39; [1],3.52 ± 0.02
same,pKa,Asp39; [2],3.6
same,pKa,Asp21; [1],2.98 ± 0.03
same,pKa,Asp21; [2],3.1
same,pKa,Glu51; [1],3.69 ± 0.02
same,pKa,Glu51; [2],3.8
same,pKa,Glu16; [1],4.07 ± 0.02
same,pKa,Glu16; [2],3.9
same,pKa,Asp58; [1],3.47 ± 0.02
same,pKa,Asp58; [2],3.7
same,pKa,Glu34; [1],4.16 ± 0.03
same,pKa,Glu34; [2],4.5
same,pKa,Asp32; [1],3.68 ± 0.03
same,pKa,Asp32; [2],3.8
same,pKa,Glu64; [1],4.26 ± 0.02
same,pKa,Glu64; [2],4.5
